In patent US12060408B2, “Screening assays, modulators and modulation of activation of Receptor for Advanced Glycation End-products (RAGE)” (Monash University, priority 2017, dated 2024):

Key:
Type in all cases: cell-based
[1] = target: T1, RAGE (Homo sapiens, UniProt Q15109); assay: Ang II-induced pro-inflammatory gene expression in human aortic endothelial cells (HAEC); details: HAECs; 1 μM, 30 minutes before Ang II; FIG. 13G
T1 construct: RAGE-AT1R—CHO cells expressing both full length RAGE and AT1R; expressed in transfected cells
T1 sequence (Q15109 23-404): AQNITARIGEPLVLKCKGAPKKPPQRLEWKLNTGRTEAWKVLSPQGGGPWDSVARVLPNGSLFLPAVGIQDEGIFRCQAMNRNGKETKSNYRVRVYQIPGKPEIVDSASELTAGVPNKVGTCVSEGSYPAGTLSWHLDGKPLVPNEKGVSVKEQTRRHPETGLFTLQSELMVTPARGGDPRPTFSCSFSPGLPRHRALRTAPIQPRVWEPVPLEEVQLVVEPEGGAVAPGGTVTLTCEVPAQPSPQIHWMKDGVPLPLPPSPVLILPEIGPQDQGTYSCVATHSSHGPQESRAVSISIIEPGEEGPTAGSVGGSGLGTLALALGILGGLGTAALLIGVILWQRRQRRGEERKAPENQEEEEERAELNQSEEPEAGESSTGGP
Method: To confirm the applicability of inhibition strategies to human tissues, additional experiments were undertaken in primary aortic endothelial cells from humans (Lonza). HAECs were grown in EGM-2 media. […]

[2] = target: T2, CCR7 (Homo sapiens, UniProt P32248); assay: Receptor-HIT BRET, β-arr2/Venus with RAGE/Rluc8 and CCR7; details: in the presence of CCR7
T2 construct: expressed in transfected cells; host or cells: HEK293FT, transient
T2 sequence (P32248 25-378): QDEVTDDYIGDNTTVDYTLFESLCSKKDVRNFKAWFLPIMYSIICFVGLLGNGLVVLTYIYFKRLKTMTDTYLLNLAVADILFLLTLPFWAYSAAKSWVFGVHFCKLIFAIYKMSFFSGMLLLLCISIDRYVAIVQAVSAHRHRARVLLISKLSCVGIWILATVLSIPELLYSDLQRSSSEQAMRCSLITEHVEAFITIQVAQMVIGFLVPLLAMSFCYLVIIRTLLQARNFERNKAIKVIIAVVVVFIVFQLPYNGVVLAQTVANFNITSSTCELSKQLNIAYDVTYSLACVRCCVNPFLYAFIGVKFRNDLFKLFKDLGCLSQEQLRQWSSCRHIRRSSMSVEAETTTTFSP
T2 sequence (P32121 whole entry partner): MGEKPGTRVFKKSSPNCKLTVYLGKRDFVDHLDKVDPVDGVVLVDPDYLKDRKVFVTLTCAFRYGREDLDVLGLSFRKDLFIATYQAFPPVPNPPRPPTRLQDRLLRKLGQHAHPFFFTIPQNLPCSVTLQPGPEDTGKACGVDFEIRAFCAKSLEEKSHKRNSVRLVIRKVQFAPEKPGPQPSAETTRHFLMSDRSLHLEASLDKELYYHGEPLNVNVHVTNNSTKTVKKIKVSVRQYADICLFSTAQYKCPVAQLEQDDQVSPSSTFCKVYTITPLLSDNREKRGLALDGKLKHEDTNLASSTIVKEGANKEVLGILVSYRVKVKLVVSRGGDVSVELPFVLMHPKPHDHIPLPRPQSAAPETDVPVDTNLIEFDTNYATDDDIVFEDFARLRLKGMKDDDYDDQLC
Source text: (§1) Bioluminescence Resonance Energy Transfer (BRET)
(§2) BRET is an established technology for studying protein-protein proximity in live cells, particularly involving GPCRs (Pfleger and Eidne, 2006). One protein of interest was linked to a bioluminescent donor enzyme, Rluc8, a variant of Renilla luciferase, and a second linked to an acceptor fluorophore, Venus, a variant of green fluorescent protein. If in close proximity (<10 nm), energy resulting from the rapid oxidation of a cell-permeable coelenterazine substrate by the donor can transfer to the acceptor, which in turn fluoresces at a longer characteristic wavelength.
(§3) Plasmids were transiently co-expressed in human embryonic kidney (HEK) 293FT cells and BRET measurements taken at 37° C. using a POLARstar Omega or LUMIstar plate reader (BMG Labtech, Mornington, Victoria, Australia) with 460-490 nm (‘donor emission’) and 520-550 nm (‘acceptor emission’) filters, or a VICTOR Light plate reader (Perkin Elmer, Glen Waverley, Victoria, Australia) with 400-475 nm (‘donor emission’) and 520-540 nm (‘acceptor emission’) filters, or a CLARIOstar plate reader (BMG Labtech, Mornington, Victoria, Australia) with 420-480 nm (‘donor emission’) and 520-620 nm (‘acceptor emission’) filters. […]
(§4) For BRET kinetic assays, the final pre-treatment reading is presented at the zero time point (time of ligand/vehicle addition). […]

[3] = target: T3, CCR6 (Homo sapiens, UniProt P51684); assay: Receptor-HIT BRET, β-arr2/Venus with RAGE/Rluc8 and CCR6; details: in the presence of CCR6
T3 construct: expressed in transfected cells; host or cells: HEK293FT, transient
T3 sequence (P51684 whole entry): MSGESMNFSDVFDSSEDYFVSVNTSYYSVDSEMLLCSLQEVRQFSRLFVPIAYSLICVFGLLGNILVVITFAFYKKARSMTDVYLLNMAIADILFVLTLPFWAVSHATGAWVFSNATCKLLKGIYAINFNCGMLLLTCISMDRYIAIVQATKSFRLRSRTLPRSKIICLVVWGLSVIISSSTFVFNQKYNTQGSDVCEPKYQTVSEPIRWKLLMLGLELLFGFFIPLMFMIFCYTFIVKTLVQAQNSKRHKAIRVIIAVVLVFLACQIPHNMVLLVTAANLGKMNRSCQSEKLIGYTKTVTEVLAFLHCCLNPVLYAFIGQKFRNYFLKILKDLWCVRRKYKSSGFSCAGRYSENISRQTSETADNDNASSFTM
T3 sequence (P32121 whole entry partner): as the sequence (P32121 whole entry partner) above
Source text: as §1, §2, §3, §4

[4] = target: T4, CCR1 (Homo sapiens, UniProt P32246); assay: Receptor-HIT BRET, β-arr2/Venus with RAGE/Rluc8 and CCR1; details: in the presence of CCR1
T4 construct: expressed in transfected cells; host or cells: HEK293FT, transient
T4 sequence (P32246 whole entry): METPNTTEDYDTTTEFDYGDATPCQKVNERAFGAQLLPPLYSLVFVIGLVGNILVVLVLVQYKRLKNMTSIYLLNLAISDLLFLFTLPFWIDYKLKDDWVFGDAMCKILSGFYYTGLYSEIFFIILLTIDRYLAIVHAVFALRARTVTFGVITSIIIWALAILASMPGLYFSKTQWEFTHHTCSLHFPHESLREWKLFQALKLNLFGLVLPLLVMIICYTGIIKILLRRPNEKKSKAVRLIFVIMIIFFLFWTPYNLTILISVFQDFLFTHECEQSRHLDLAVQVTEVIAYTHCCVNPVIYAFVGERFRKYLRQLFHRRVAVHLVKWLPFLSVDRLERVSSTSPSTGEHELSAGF
T4 sequence (P32121 whole entry partner): as the sequence (P32121 whole entry partner) above
Source text: as §1, §2, §3, §4

Compound: CCCCC1=NC2(CCCC2)C(=O)N1Cc1ccc(-c2ccccc2-c2nnn[nH]2)cc1 [irbesartan]
- Ang II-induced induction of pro-inflammatory genes [1]: inhibitory effect

Compound: CCL19: chemokine ligand used to activate CCR7
- recruitment of β-arr2/Venus proximal to RAGE/Rluc8 [2]: recruitment

Compound: CCL20: chemokine ligand used to activate CCR6
- recruitment of β-arr2/Venus proximal to RAGE/Rluc8 [3]: recruitment

Compound: CCL3: chemokine ligand used to activate CCR1
- recruitment of β-arr2/Venus proximal to RAGE/Rluc8 [4]: recruitment
